Measurements from the supplement of paper PMC12042874.
± gives the uncertainty stated by the source.

Test: amyloid nucleation score (Sup35N fusion, yeast selection) (log enrichment); library NNK1; higher = more nucleation; inactive = no reads after selection
Summary of the method: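 The nucleation score is the DiMSum log enrichment of output over input reads, centred on the mode score of non-aggregating sequences. Only sequences with 100 or more input reads were scored, using Illumina sequencing of input and output plasmid inserts. Psi-negative yeast expressing Sup35N fused to peptides of 20 random codons were induced 24 hours with 100 μM copper sulfate and grown 7 days at 30°C on medium lacking adenine and uracil.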

| Substance | amyloid nucleation score |
| --- | --- |
| VLISENNITNHNSHECLVCY | -1.02 ± 1.7 |
| VKFCCFGLLCELYSGHSGRM | 1.33 ± 0.15 |
| SYNVMCVGYCIC | 3.4 ± 0.12 |
| QNPWNGILLAKNWRDKMLRN | 0.3 ± 0.52 |
| TRFNTSEDHSLDNIEA | -0.542 ± 0.93 |
| YSEYPSLLGRSSGMIDNFKG | 0.597 ± 0.28 |
| VGISMHFRSRENFQSN | inactive |
| VSWDSMYMAMPWVIVHVL | inactive |
| FGVEYWWSLGCVWGTLLGYN | inactive |
| HDSNHFLRDLLVILRYYEAV | inactive |
| FRVGYFAHSCRYVRSGRHMV | 0.401 ± 0.26 |
| TVRSYRSGRCYNFIVNRERA | -0.177 ± 0.75 |
| AYTCDV | 0.03 ± 0.29 |
| ALLIPINTLGDN | 0.605 ± 0.7 |
| LVPVWARLR | -0.686 ± 0.65 |
| ALSSWLLFGSTCQDSDCFKD | 1.16 ± 0.76 |
| NVLTVCCVGLIKSSVSLIEN | 8.418 ± 0.065 |
| GHWPQRCIMVVECYQRQAHK | 0.115 ± 0.65 |
| DVFYVILNVSLVCSVPFLSA | -0.179 ± 0.72 |
| WDRTTCVYSLLPMGNSPKVE | 0.144 ± 0.45 |
| EGYAWGPYLKLTRSKLRMSF | -0.374 ± 0.81 |
| SQNVPDCVLKTLRFDVPCCR | 1.14 ± 0.4 |
| LDIINLGGRHFTRSPVLYRN | -0.297 ± 0.49 |
| TCFVVLYTKMNVFECFDLQV | -0.109 ± 0.51 |
| LGYIEKFWVGGHYLFLPTIY | 0.073 ± 1.5 |

| Substance | amyloid nucleation score |
| --- | --- |
| LARTMYCYIVSEKVLWSGVG | 2.15 ± 0.1 |
| AASTNSGR | 0.305 ± 0.68 |
| MYNNTALRRSEYADCH | 0.872 ± 0.8 |
| YLNACGSSVRTKVRCSRVIL | -0.209 ± 0.91 |
| FDVLVIFGFDTNRDACSDAL | 0.174 ± 0.38 |
| EPSLERRRRPSEMVGAKGWI | -0.374 ± 1.1 |
| RVSPFISNTFVVNSKETHGV | 4.56 ± 0.056 |
| RVLATKRRLQKRLHESVLLA | 0.34 ± 1.1 |
| SRYYASYFGIG | 0.034 ± 0.97 |
| RGMIFLHQASCLHRDN | -0.836 ± 0.61 |
| AVELI | -0.436 ± 0.34 |
| CHYLVLD | -0.186 ± 0.74 |
| CLYARLSFASGYCGLAMRCV | 0.477 ± 0.93 |
| GIPCT | 0.38 ± 0.72 |
| DNGCDEVCWELVFEFVD | 0.562 ± 0.39 |
| HCNIMIDSTSLFNGGLVFYN | 4.83 ± 0.059 |
| NLFIPILVYHDVSRYSLRMD | 6.483 ± 0.055 |
| FPDELESWRTSASPRVAPMG | -0.247 ± 1.9 |
| VVKVWPYYSYVSMV | -0.114 ± 0.55 |
| LLQGCNEVPVRKSKVVSSVR | 0.441 ± 0.24 |
| SHLFQM | -0.034 ± 0.58 |
| GLIYTTSLMRVLNSVVGL | inactive |
| SFLDMGFEAVNFGVVPSIMR | 0.479 ± 0.48 |
| QFVHGRNETIRSFNCPGLAE | -0.007 ± 1.2 |
| CIYWALGRAMRLPSGTGARG | 0.099 ± 0.95 |

| Substance | amyloid nucleation score |
| --- | --- |
| SWLIRLSLYWYVNWSCMVGV | -0.009 ± 0.45 |
| FDAMSANLESIYFSFNENMY | -0.572 ± 0.56 |
| VFLMYRLMH | inactive |
| MVIYR | -0.517 ± 0.75 |
| NRLCDK | 1.25 ± 0.35 |
| PRYRASVYYKDTRVLLLF | 0.512 ± 0.36 |
| SNFSG | 0.446 ± 0.66 |
| MDLGRMSSGFMRSNMNKKVR | 0.519 ± 0.4 |
| STVLQWIIGRPLYARDSLAS | -0.561 ± 0.6 |
| IKFERAIRSSVGKQRC | 0.784 ± 0.71 |
| FDATFVMLRSRAFFKICKER | 0.751 ± 0.27 |
| QYCKFPNIRRLRINK | -0.393 ± 0.36 |
| FYLHNICVRR | -0.249 ± 0.52 |
| YSGRVTLWIVPMLHARH | -0.114 ± 0.42 |
| RRVGLVASDTGRGEWWTRSM | -0.015 ± 0.55 |
| SRLRLGIRTDLG | 0.218 ± 0.54 |
| SSSSYNSR | 0.97 ± 0.62 |
| SKSYFSIV | -0.361 ± 0.39 |
| RILYMYWVFMVLFMTPRCLD | -0.099 ± 0.48 |
| LNWNCITCTLNFVKYVTDCR | 7.866 ± 0.046 |
| KLMLLLSNSMNQRSDYPRFQ | -0.327 ± 0.44 |
| KSTRWQIRSDALDVSERCFS | 1 ± 0.76 |
| PNLMLAFVL | 1.14 ± 0.41 |
| RNKSGSGYKLFVSGELAQQM | inactive |
| TIGASKFMICWTDSFHLQSQ | 3 ± 0.12 |

| Substance | amyloid nucleation score |
| --- | --- |
| VVVIFLHGIWCGLRL | -0.208 ± 0.75 |
| LYKDGQGSKEAIVSRVDCMS | 0.892 ± 0.25 |
| GSSKNFH | 0.972 ± 0.43 |
| IIVIIVLLDLDVSWVDYEVM | -0.157 ± 0.78 |
| IRCLGISRIFLVYRSVPFWI | 0.413 ± 0.57 |
| DFYLT | -0.257 ± 1.4 |
| HTRIADGPAC | 0.018 ± 0.21 |
| FGYTVFIDFVSSGMMRFGGQ | 0.784 ± 0.48 |
| CMYTEACNWWGKYNCVGRQL | 0.235 ± 0.32 |
| QKAAVEQGLSRFGEGVTP | 0.886 ± 0.66 |
| KITIGINS | 0.4 ± 0.33 |
| FLYVLDSVSCQ | 0.648 ± 0.69 |
| QLKCPKNDHVIVWDFCINQL | 2.28 ± 0.32 |
| TLVVGMRLDNHDHA | 1.14 ± 0.21 |
| SVWNILLIV | 0.665 ± 0.34 |
| KYFSSNSKYIYDQLIVPSRT | -0.42 ± 1.7 |
| HGNYTHQMTPAELFLRHMRF | -0.991 ± 2.4 |
| GRLISETNLAKSYSL | -0.187 ± 0.33 |
| QVRLKEFLYSLKCDVRYGST | inactive |
| ICMILVPFMPT | 0.976 ± 1.1 |
| ISGTRLVLGLDDSR | 0.069 ± 0.37 |
| IRPINKYRIVLIWVSFVRGE | 0.718 ± 0.73 |
| PLKHVRQDWCTKLICNSGNY | -0.357 ± 0.43 |
| IIGSEARLD | inactive |
| VRNVISNKYCRAGYLTKYLL | -0.16 ± 0.22 |

| Substance | amyloid nucleation score |
| --- | --- |
| GHLCSLSSGFN | 0.69 ± 0.24 |
| NVIRTQQSR | 0.208 ± 0.52 |
| NFLFAYVLALRLFMYSVNMW | 4.5 ± 0.054 |
| ITLKF | -0.381 ± 0.43 |
| PFYRNLFSWAGYILLCGCHE | -0.775 ± 0.75 |
| KWNCLVSCRLCELYLIPLI | 3.58 ± 0.081 |
| IHQEIVNVNTIVCN | -0.147 ± 0.25 |
| PSTVCMFPRWLAVVRLVLQT | 0.79 ± 0.35 |
| TFASTS | 0.002 ± 0.36 |
| HIFCRVIPLHMYKLADNW | 0.841 ± 0.8 |
| LRGRSPNYEALKMLYFFLLV | 0.314 ± 1.4 |
| RAKTWDGRGAKQP | 1.22 ± 0.64 |
| YHTNTGDDPSCPRPSTSYSG | 1.98 ± 0.51 |
| TKLAY | 0.445 ± 0.49 |
| EYSADTIGVIGLGTAPDERR | -0.239 ± 0.84 |
| TIGFTHYCCSFKS | -1.23 ± 0.52 |
| WMAFWGWVLYYFSFHFTFNV | 0.079 ± 0.48 |
| HSMLI | 0.539 ± 0.61 |
| KSGSKCRLRGSDNSNRLSVM | -0.335 ± 1.5 |
| AQLYVNWFCVWSFKE | 6.2 ± 0.08 |
| RRRPGPLPRCAF | 1.96 ± 0.18 |
| RGAASKDLLMV | 0.082 ± 0.86 |
| VVLQVMFARAWWFF | 0.185 ± 0.33 |
| SSPRTLRGLIYGRIKYYVLE | 1.84 ± 0.35 |
| FVYHWRSVKGNLVWRCGSMD | 0.95 ± 0.63 |

| Substance | amyloid nucleation score |
| --- | --- |
| TDNTVVVMHWFHTFSPGARK | 2.08 ± 0.28 |
| NMLWSGITKFGGRGLKSMVV | -0.169 ± 0.88 |
| TRFVVVVMIISQLRCLLCDM | 0.61 ± 1 |
| TDMLMLIMIRVSLIGRRTFQ | inactive |
| PTEKYAESLMERTYFRAEMK | 0.315 ± 0.34 |
| NKLTSCTVSHCL | -0.125 ± 0.44 |
| IIQRAM | 0.09 ± 0.7 |
| LLSPFCVVLGSSTTGTMVNM | 0.287 ± 0.62 |
| ISAVGKYESDTVGPSKND | 0.507 ± 1 |
| SCIKNSCGINYLVGQATFHN | 6.499 ± 0.049 |
| DDGGLSFGSGNSQSSKKIWL | 0.853 ± 0.42 |
| SCYIDYNFYSWQGSWYCFKI | inactive |
| QCLRWDPGI | 1 ± 0.51 |
| HLYTVTHGSLNDKTGRP | 0.31 ± 0.97 |
| ECRMYLLTLVARRSRNPDNC | 1.03 ± 0.61 |
| SVACPGLARMGRRSGREYNE | -1.46 ± 0.59 |
| FPLSTQ | 2.37 ± 0.43 |
| KFFCCN | 7.776 ± 0.076 |
| TFRGNRIINQNWGYHCMWWC | 5.733 ± 0.056 |
| NNYVYLSLSFPVGTVC | -0.377 ± 0.61 |
| YWLLLSSENRECVLVTRRHR | -0.585 ± 1.7 |
| CRDVY | 1.92 ± 0.51 |
| DFYLWPGMFSKYLGLNATLS | -0.604 ± 0.57 |
| PMVIKVLVGCRGYSDLNLYW | 4.9 ± 0.079 |
| SEWSRKGVYNACLITG | -0.01 ± 0.48 |

| Substance | amyloid nucleation score |
| --- | --- |
| KWDKVALYFDQVQITELCIY | 4.21 ± 0.091 |
| FMNGLGPAVAYIMGYTYVSM | 6.369 ± 0.063 |
| LARYMIYWGLMSAGRHRRHY | -0.46 ± 0.43 |
| SCEFLCVRHVLCHHLSLNVS | 0.296 ± 1.4 |
| FYLFVMKDASILYLVCSFSF | -0.46 ± 0.4 |
| SFCNFQGVRFFL | 1.73 ± 0.2 |
| GSFHTQRTWAFVVVVEVHGK | 0.232 ± 0.41 |
| GDFSGSDVHLSFLF | 0.541 ± 0.4 |
| PRTLPVLFNLSLKGSSHTYF | 4.52 ± 0.064 |
| GFAFSNVCIVAYYRYFSSRR | 3.26 ± 0.15 |
| VVTQLLEFVSITSEGWSQHM | 2.57 ± 0.096 |
| TRISFRKGV | -0.54 ± 0.5 |
| RNYPTRPYRGVINHLGFCRV | -1.06 ± 0.57 |
| RRGFVAHLFLVLTVVCNLNS | 7.2 ± 0.071 |
| VNQFLRAMVPLKLRYRYFCL | 1.02 ± 0.74 |
| VRMKPCSLLNLGTYPAQNVM | -0.888 ± 1.9 |
| RIWLTFTSFIYDNVDRILVQ | -0.2 ± 0.67 |
| GFYIDDYES | -1.39 ± 2.7 |
| PMSLPTYLRIPRFVLLAWAE | -0.034 ± 0.39 |
| VICFWTLSRFYRGRD | -1.13 ± 0.62 |
| VMVWHCRSATTWWKQVTMNL | -0.584 ± 2.1 |
| FIRFTICALTSKVDFI | 0.811 ± 0.74 |
| MQWSYV | 0.32 ± 0.37 |
